Assay [1] has as its target T1, wild-type CCR1 expressed on HEK293 cells (human, UniProt P32246 1-355).
T1 sequence (looked up): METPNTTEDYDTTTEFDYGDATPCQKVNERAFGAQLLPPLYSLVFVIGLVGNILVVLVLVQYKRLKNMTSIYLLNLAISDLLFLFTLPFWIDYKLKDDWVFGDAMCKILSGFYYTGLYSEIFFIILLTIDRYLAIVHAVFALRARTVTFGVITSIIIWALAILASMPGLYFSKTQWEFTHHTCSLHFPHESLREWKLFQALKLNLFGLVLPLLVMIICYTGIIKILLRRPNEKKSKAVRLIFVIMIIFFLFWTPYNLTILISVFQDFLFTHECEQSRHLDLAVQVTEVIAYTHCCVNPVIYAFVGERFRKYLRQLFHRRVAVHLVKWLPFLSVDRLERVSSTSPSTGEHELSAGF
The assay can be described thus: cell-based or functional assay.

Assay [2] has as its target T2, CCR1 solubilized from HEK293 membranes and purified in detergent/lipid micelles (human, UniProt P32246 1-355).
T2 sequence (looked up): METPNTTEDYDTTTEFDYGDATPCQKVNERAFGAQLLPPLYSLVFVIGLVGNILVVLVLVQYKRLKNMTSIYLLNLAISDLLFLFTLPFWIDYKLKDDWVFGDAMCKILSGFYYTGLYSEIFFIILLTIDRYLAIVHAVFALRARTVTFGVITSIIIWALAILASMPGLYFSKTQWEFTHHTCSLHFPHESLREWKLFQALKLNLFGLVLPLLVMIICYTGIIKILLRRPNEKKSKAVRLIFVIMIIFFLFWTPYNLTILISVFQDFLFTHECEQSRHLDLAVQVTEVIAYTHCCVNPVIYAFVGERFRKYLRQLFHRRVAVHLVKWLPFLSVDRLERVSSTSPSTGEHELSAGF
The assay can be described thus: fluorescence polarisation. Background: In fluorescence polarisation assays a small probe gives low polarisation when free and higher when bound to something large.

The target in assay [3] is T2, CCR1 solubilized from HEK293 membranes …. The assay can be described thus: fluorescence polarisation. The source holds these as a separate data set.
The target is the same in assay [4]. The assay can be described thus: fluorescence polarisation. This is another data set of the same source.
Assay [5] shares this target. The assay can be described thus: fluorescence polarisation. The source holds these as a separate data set.
Assay [6] shares this target. The assay can be described thus: fluorescence polarisation. The source holds these as a separate data set.
Assay [7] has as its target T1, wild-type CCR1 expressed on HEK293 cells. The assay can be described thus: radioligand binding.

Like-named read-outs stand apart in the source and are kept apart here. fluorescein‑5‑maleimide = fluorescein-5-maleimide Bounds are passed on as bounds.

Consider 3 molecules from publication PMC2706832 (Protein expression and purification, 2009).

B1: CCL7 (ligand)
chain: not shown
For B1, the “EC50 of calcium mobilization in CCR1-transfected HEK293 cells (FLIPR Calcium 4)” value in assay [1] worked out at 8 nM.

B2: CCL14-fluorescein (ligand)
chain: GPYHPSECCFTYTTYKIPRQRIMDYYETNSQCSKPGIVFITKRGHSVCTNPSDKWVQDYIKDMKENC(fluorescein‑5‑maleimide)
For orientation: Kd means a measure of binding affinity in units of concentration. Low readings indicate higher affinity, high ones lower affinity. With B2, the dissociation constant (Kd) in assay [2] is above 1000 nM; in assay [3], above 1000 nM; in assay [4] it was above 1000 nM; in assay [5], 21 nM; in assay [6], 35 nM.

B3: wild-type CCL3 (ligand, UniProt P10147 24-92, looked up)
chain: SLAADTPTACCFSYTSRQIPQNFIADYFETSSQCSKPGVIFLTKRSRQVCADPSEEWVQKYVSDLELSA
As a reminder, the IC50 is the point on the concentration scale where inhibition reaches its midpoint. In turn, B3 had an IC50 in assay [7] of 0.9 nM.
